Measured values reported in article PMC3991886, “Characterization of single-stranded DNA-binding proteins from the psychrophilic bacteria Desulfotalea psychrophila, Flavobacterium psychrophilum, Psychrobacter arcticus, Psychrobacter cryohalolentis, Psychromonas ingrahamii, Psychroflexus torquis, and Photobacterium profundum” (BMC Microbiology, 2014).

How the values were obtained:
Test in all cases: fluorescence titration; 2-300 mM NaCl; site size 32 ± 2 nt; EMSA: 20 mM Tris-HCl pH 8.0, 100 mM NaCl, 1 mM EDTA, 25 C, 2% agarose in TAE; fluorescence titration: 20 mM Tris-HCl pH 8.0, 1 mM EDTA, 2/100/300 mM NaCl, 25 C
Settings in all cases: protein: recombinant; tags: none (stop codon in reverse primer); chain copies: 4; label: none stated
[1] = target: T1, PcrSSB (Psychrobacter cryohalolentis K5 (DSM …, UniProt Q1Q9B8 1-1+=G+2-219, internal_change))
T1 sequence: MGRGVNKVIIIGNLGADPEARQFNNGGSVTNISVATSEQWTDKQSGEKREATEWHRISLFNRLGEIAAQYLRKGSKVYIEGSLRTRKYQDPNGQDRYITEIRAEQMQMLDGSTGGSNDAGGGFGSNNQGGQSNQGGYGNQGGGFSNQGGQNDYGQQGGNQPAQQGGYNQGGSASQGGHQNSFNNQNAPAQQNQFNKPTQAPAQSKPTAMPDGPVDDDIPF

[2] = target: T2, PtoSSB (Psychroflexus torquis ATCC 700755 (LMG …, UniProt K4IS14 1-151))
T2 sequence: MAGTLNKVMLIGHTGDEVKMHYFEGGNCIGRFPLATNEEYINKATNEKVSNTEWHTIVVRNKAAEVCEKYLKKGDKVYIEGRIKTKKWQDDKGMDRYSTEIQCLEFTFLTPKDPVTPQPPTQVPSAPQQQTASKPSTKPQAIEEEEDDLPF

[3] = target: T3, PprSSB (Photobacterium profundum (LMG 19446), UniProt Q6LM83 5-187)
T3 sequence: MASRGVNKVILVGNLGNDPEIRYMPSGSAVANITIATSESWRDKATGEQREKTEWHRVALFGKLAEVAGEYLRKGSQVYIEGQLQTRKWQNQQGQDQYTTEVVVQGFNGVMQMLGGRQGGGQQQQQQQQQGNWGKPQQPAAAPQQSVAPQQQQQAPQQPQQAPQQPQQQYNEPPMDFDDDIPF

B1: (dT)76 (ssDNA)
DNA: TTTTTTTTTTTTTTTTTTTTTTTTTTTTTTTTTTTTTTTTTTTTTTTTTTTTTTTTTTTTTTTTTTTTTTTTTTTT
[1]
  binding signal: 93 ± 3 % Trp fluorescence quench at saturation
[2]
  binding signal: 93 ± 3 % Trp fluorescence quench at saturation
[3]
  binding signal: 90 ± 3 % Trp fluorescence quench at saturation
